# Source: US20110165161A1, “ANTI-EPCAM ANTIBODIES THAT INDUCE APOPTOSIS OF CANCER CELLS AND METHODS USING SAME” (priority 2009, published 2011)
# T1: human EpCAM (epithelial cell adhesion/activating molecule) (human, UniProt P16422 24-314)
# T1 sequence: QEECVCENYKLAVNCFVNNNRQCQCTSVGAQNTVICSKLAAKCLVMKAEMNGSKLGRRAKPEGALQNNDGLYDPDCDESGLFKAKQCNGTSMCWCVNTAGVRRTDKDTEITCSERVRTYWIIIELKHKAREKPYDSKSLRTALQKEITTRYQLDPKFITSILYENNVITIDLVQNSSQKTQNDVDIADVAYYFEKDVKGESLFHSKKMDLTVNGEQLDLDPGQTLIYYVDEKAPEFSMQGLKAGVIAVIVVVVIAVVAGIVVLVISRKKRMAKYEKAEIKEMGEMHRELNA
# T2: EGFI-Cr1 Q24A (human, UniProt P16422 25-63)
# T2 construct: not shown: The fused constant region of human immunoglobulin gamma 1 heavy chain (Cr1)
# T2 chain: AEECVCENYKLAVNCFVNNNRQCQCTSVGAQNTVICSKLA
# T3: EGFI-Cr1 E25K (human, UniProt P16422 24-63)
# T3 construct: not shown: The fused constant region of human immunoglobulin gamma 1 heavy chain (Cr1)
# T3 chain: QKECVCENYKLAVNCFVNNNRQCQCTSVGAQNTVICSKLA
# T4: EGFI-Cr1 E26D (human, UniProt P16422 24-63)
# T4 construct: not shown: The fused constant region of human immunoglobulin gamma 1 heavy chain (Cr1)
# T4 chain: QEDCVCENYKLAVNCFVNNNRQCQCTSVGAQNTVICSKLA
# T5: EGFI-Cr1 A35T (human, UniProt P16422 24-63)
# T5 construct: not shown: The fused constant region of human immunoglobulin gamma 1 heavy chain (Cr1)
# T5 chain: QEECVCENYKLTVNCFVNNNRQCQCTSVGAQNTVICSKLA
# T6: EGFI-Cr1 N37R (human)
# T6 construct: not shown: The fused constant region of human immunoglobulin gamma 1 heavy chain (Cr1)
# T6 chain: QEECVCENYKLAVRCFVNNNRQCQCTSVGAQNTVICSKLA
# T7: EGFI-Cr1 F39A (human, UniProt P16422 24-63)
# T7 construct: not shown: The fused constant region of human immunoglobulin gamma 1 heavy chain (Cr1)
# T7 chain: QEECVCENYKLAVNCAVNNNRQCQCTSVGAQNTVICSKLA
# T8: EGFI-Cr1 V40E (human)
# T8 construct: not shown: The fused constant region of human immunoglobulin gamma 1 heavy chain (Cr1)
# T8 chain: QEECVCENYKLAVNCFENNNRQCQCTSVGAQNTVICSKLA
# T9: EGFI-Cr1 N41A (human, UniProt P16422 24-63)
# T9 construct: not shown: The fused constant region of human immunoglobulin gamma 1 heavy chain (Cr1)
# T9 chain: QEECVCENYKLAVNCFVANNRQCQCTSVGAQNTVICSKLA
# T10: EGFI-Cr1 N42E (human, UniProt P16422 24-63)
# T10 construct: not shown: the constant region of human immunoglobulin gamma 1 heavy chain (Cr1) fused at the C-terminus
# T10 chain: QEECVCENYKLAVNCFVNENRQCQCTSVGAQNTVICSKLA
# T11: EGFI-Cr1 N43A (human, UniProt P16422 24-63)
# T11 construct: not shown: the constant region of human immunoglobulin gamma 1 heavy chain (Cr1) fused at the C-terminus
# T11 chain: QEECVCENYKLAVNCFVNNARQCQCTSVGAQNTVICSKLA
# T12: EGFI-Cr1 R44G (human, UniProt P16422 24-63)
# T12 construct: not shown: the constant region of human immunoglobulin gamma 1 heavy chain (Cr1) fused at the C-terminus
# T12 chain: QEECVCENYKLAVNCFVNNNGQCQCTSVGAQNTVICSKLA
# T13: EGFI-Cr1 Q45A (human, UniProt P16422 24-63)
# T13 construct: not shown: the constant region of human immunoglobulin gamma 1 heavy chain (Cr1) fused at the C-terminus
# T13 chain: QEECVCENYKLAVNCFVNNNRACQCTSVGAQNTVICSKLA
# T14: EGFI-Cr1 Q47A (human, UniProt P16422 24-63)
# T14 construct: not shown: the constant region of human immunoglobulin gamma 1 heavy chain (Cr1) fused at the C-terminus
# T14 chain: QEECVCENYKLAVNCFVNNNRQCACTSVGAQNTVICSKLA
# T15: EGFI-Cr1 T49A (human, UniProt P16422 24-63)
# T15 construct: not shown: the constant region of human immunoglobulin gamma 1 heavy chain (Cr1) fused at the C-terminus
# T15 chain: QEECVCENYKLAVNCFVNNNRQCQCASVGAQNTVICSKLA
# Key:
# [1] = biological target: T1, human EpCAM (epithelial cell …); assay: cell-based or functional assay
# [2] = biological target: T1, human EpCAM (epithelial cell …); assay: cell-based or functional assay; remark: listed apart in the source
# [3] = biological target: T1, human EpCAM (epithelial cell …); assay: flow cytometry, CHO/EpCAM cells, 0.1 µg/ml antibody
# Protocol: A 300× dilution of human cell hyper-immune serum (HPS 300×) was used as binding positive control for both cell lines here. After 1 hr incubation at 4° C., cells were washed twice with 200 μl FACS buffer (1×PBS containing 1% FBS), stained with 100 μl of 1 μg/ml goat-anti-mouse IgG-PE (Southern Biotech, Cat. No. 1032-09) in FACS buffer and then incubated at 4° C. for 30 min. Cells were washed thrice with FACS buffer and analyzed by flow cytometry (BD LSR, BD Life Sciences).
# [4] = biological target: T16, EGFI-Cr1 wild type (first EGF-like repeat of human EpCAM fused to the constant region of human immunoglobulin … (human, UniProt P01857-1 99-330 = IgG part)); assay: direct ELISA, coated EGFI-Cr1 fusion, 0.1 µg/ml antibody
# T16 construct: cDNA covered aa 1-63; Expressed in COS-7 cells; also called WT; EpCAM EGF-1 fusion protein WT
# Protocol: (§1) A direct ELISA was used for testing the reactivity of anti-EpCAM antibodies toward variant EpCAM mutants. Briefly, purified EpCAM EGF-1 fusion proteins (WT, Q24A, E25K, E26D, A35T, N37R, F39A, V40E, N41A, N42E, N43A, R44G, Q45A, Q47A or T49A) and irrelevant control (CEA-Cr1) were pre-diluted to 0.5 μg/ml in coating buffer (8.4 g NaHCO₃, 3.4 g Na₂CO₃ in 1 L H₂O, pH 9.5) and aliquoted (100 μl/well) into 96-well plates. […] Plates were then washed 3 times with PBST followed by the addition of the enzyme substrate TMB (BD Biosciences, Cat. No. 555214). […] The optical densities at 450 nm wavelength were measured on an ELISA plate reader.
# EGFI-Cr1 Q24A = biological target: T2, EGFI-Cr1 Q24A; assay: as above
# Protocol: as §1
# EGFI-Cr1 E25K = biological target: T3, EGFI-Cr1 E25K; assay: as above
# Protocol: as §1
# EGFI-Cr1 E26D = biological target: T4, EGFI-Cr1 E26D; assay: as above
# Protocol: as §1
# EGFI-Cr1 A35T = biological target: T5, EGFI-Cr1 A35T; assay: as above
# Protocol: as §1
# EGFI-Cr1 N37R = biological target: T6, EGFI-Cr1 N37R; assay: as above
# Protocol: as §1
# EGFI-Cr1 F39A = biological target: T7, EGFI-Cr1 F39A; assay: as above
# Protocol: as §1
# EGFI-Cr1 V40E = biological target: T8, EGFI-Cr1 V40E; assay: as above
# Protocol: as §1
# EGFI-Cr1 N41A = biological target: T9, EGFI-Cr1 N41A; assay: as above
# Protocol: as §1
# EGFI-Cr1 N42E = biological target: T10, EGFI-Cr1 N42E; assay: as above
# Protocol: as §1
# EGFI-Cr1 N43A = biological target: T11, EGFI-Cr1 N43A; assay: as above
# Protocol: as §1
# EGFI-Cr1 R44G = biological target: T12, EGFI-Cr1 R44G; assay: as above
# Protocol: as §1
# EGFI-Cr1 Q45A = biological target: T13, EGFI-Cr1 Q45A; assay: as above
# Protocol: as §1
# EGFI-Cr1 Q47A = biological target: T14, EGFI-Cr1 Q47A; assay: as above
# Protocol: as §1
# EGFI-Cr1 T49A = biological target: T15, EGFI-Cr1 T49A; assay: as above
# Protocol: as §1
binder,measurement,setting,value
"murine monoclonal antibody 2D11 (antibody, mouse IgG1, V domains shown, Mouse IgG1, kappa, from hybridoma; also called m322-2D11.19) VH: QIQLVQSGPELKKPGETVKISCKASGYTFTNYGMNWVKQAPGKGLKWMGWINTNTGEATYVEEFKGRVVFSLETSASTAYLQINNLKNEDTATYFCARIGYVWYFDVWGAGTTVTVSS VL: DIVMSQSPSSLAVSAGEKVTMSCKSSQSLFSSRTRKNYLAWYQQKPGQSPKLLIYWASTRESGVPDRFTGSGSGTDFTLTINSVQAEDLAVYYCKHSNNLFTFGSGTKLEIKR","% Annexin V/PI-positive cells, DLD-1, 1.0 µg/ml mAb",[1],18%
same,"% Annexin V/PI-positive cells, DLD-1, 3.0 µg/ml mAb",[1],41%
same,"% Annexin V/PI-positive cells, DLD-1, 10 µg/ml mAb",[1],48%
same,"% Annexin V/PI-positive cells, FaDu, 1.0 µg/ml mAb",[1],34%
same,"% Annexin V/PI-positive cells, FaDu, 3.0 µg/ml mAb",[1],45%
same,"% Annexin V/PI-positive cells, FaDu, 10 µg/ml mAb",[1],46%
same,"% Annexin V/PI-positive cells, LNCaP, 1.0 µg/ml mAb",[1],40%
same,"% Annexin V/PI-positive cells, LNCaP, 3.0 µg/ml mAb",[1],39%
same,"% Annexin V/PI-positive cells, LNCaP, 10 µg/ml mAb",[1],40%
same,"% Annexin V/PI-positive cells, NCI-H520, 1.0 µg/ml mAb",[1],41%
same,"% Annexin V/PI-positive cells, NCI-H520, 3.0 µg/ml mAb",[1],44%
same,"% Annexin V/PI-positive cells, NCI-H520, 10 µg/ml mAb",[1],52%
same,"% Annexin V/PI-positive cells, NCI-N87, 1.0 µg/ml mAb",[1],45%
same,"% Annexin V/PI-positive cells, NCI-N87, 3.0 µg/ml mAb",[1],48%
same,"% Annexin V/PI-positive cells, NCI-N87, 10 µg/ml mAb",[1],51%
same,"% Annexin V/PI-positive cells, NIH:OVCAR-3, 1.0 µg/ml mAb",[1],43%
same,"% Annexin V/PI-positive cells, NIH:OVCAR-3, 3.0 µg/ml mAb",[1],55%
same,"% Annexin V/PI-positive cells, NIH:OVCAR-3, 10 µg/ml mAb",[1],56%
same,"% Annexin V/PI-positive cells, T-47D, 1.0 µg/ml mAb",[1],36%
same,"% Annexin V/PI-positive cells, T-47D, 3.0 µg/ml mAb",[1],48%
same,"% Annexin V/PI-positive cells, T-47D, 10 µg/ml mAb",[1],45%
same,"% of Annexin V + PI staining (untreated background subtracted), NCI-H358, 10 µg/ml mAb, Exp1",[2],41%
same,"% of Annexin V + PI staining (untreated background subtracted), NCI-H358, 10 µg/ml mAb, Exp2",[2],32%
same,"% of Annexin V + PI staining (untreated background subtracted), NCI-H358, 10 µg/ml mAb, Exp3",[2],47%
same,"% of Annexin V + PI staining (untreated background subtracted), NCI-H358, 10 µg/ml mAb, Exp4",[2],44%
same,"% of Annexin V + PI staining (untreated background subtracted), NCI-H358, 10 µg/ml mAb, Exp5",[2],33%
same,MFI,[3],3720 MFI
same,relative binding activity (% of WT),[4],100%
same,relative binding activity (% of WT),EGFI-Cr1 Q24A,99%
same,relative binding activity (% of WT),EGFI-Cr1 E25K,93%
same,relative binding activity (% of WT),EGFI-Cr1 E26D,97%
same,relative binding activity (% of WT),EGFI-Cr1 A35T,95%
same,relative binding activity (% of WT),EGFI-Cr1 N37R,94%
same,relative binding activity (% of WT),EGFI-Cr1 F39A,97%
same,relative binding activity (% of WT),EGFI-Cr1 V40E,93%
same,relative binding activity (% of WT),EGFI-Cr1 N41A,12%
same,relative binding activity (% of WT),EGFI-Cr1 N42E,58%
same,relative binding activity (% of WT),EGFI-Cr1 N43A,5%
same,relative binding activity (% of WT),EGFI-Cr1 R44G,7%
same,relative binding activity (% of WT),EGFI-Cr1 Q45A,89%
same,relative binding activity (% of WT),EGFI-Cr1 Q47A,96%
same,relative binding activity (% of WT),EGFI-Cr1 T49A,95%
